Assay results published in article PMC10152144 (2026).

Molecular target: Arp2/3 complex (Bos taurus, UniProt A7MB62)
Test: single-filament microfluidics TIRF detachment assay

Kd [nM]	Binder
70	GMF (protein) SDSLVVCEVDPELKETLRKFRFRKETNNAAIIMKVDKDRQMVVLEDELQNISPEELKLELPERQPRFVVYSYKYVHDDGRVSYPLCFIFSSPVGCKPEQQMMYAGSKNRLVQTAELTKVFEIRTTDDLTETWLKEKLAFFR
560	VCA motif VCA (protein) PSDGDHQVPTTAGNKAALLDQIREGAQLKKVEQNSRPVSCSGRDALLDQIRQGIQLKSVADGQESTPPTPAPTSGIVGALMEVMQKRSKAIHSSDEDEDEDDEEDFEDDDEWED
